For eleven sequences, Kd results are on record in the Immune Epitope Database (IEDB).

A value given as a limit tells only on which side of the number the result lay.

The target in assay [1] is HLA-A*03:01. Description: IEDB peptide-MHC binding, purified MHC/competitive/fluorescence; filed as Kd, often an IC50 or EC50 that approximates it; ≥ and ≤ were set here for values at or beyond the usual limits of such assays.
A further assay addresses HLA-B*27:05. Description: IEDB peptide-MHC binding, purified MHC/direct/fluorescence; filed as Kd, often an IC50 or EC50 that approximates it; ≥ and ≤ were set here for values at or beyond the usual limits of such assays.
The next assay addresses HLA-B*44:02. Described as above.
Assay [2] has as its target HLA-B*39:01. The description is as above.
A further assay concerns the target HLA-A*29:02. The assay is described as above.
Assay [3] has as its target HLA-B*15:01. The assay is described as above. The following applies: source organism: Mammarenavirus juninense.
The next assay addresses HLA-B*58:01. Described as above. The following applies: source organism: Mammarenavirus juninense.
The next assay addresses HLA-A*01:01. The assay is described as above.
In assay [4] the target is HLA-A*03:01. Described as above.
The target in assay [5] is HLA-A*69:01. Described as above. The following applies: source organism: Mammarenavirus juninense.
In assay [6] the target is HLA-A*02:01. The assay is described as above. Conditions: source organism: Mammarenavirus juninense.
Assay [7] concerns the target HLA-B*46:01. Described as above.
For assay [8], the target named is HLA-B*18:01. Described as above. The following applies: source organism: Mammarenavirus juninense.
Another assay deals with HLA-A*31:01. The description is as above. The following applies: source organism: Mammarenavirus juninense.
Assay [9] deals with HLA-B*57:01. The assay is described as above. Conditions: source organism: Mammarenavirus juninense.
The next assay has as its target HLA-B*07:02. Described as above.
In the next assay the target is HLA-B*40:01. The assay is described as above.
The target of another assay is HLA-A*02:16. The assay is described as above. The following applies: source organism: Coxiella burnetii.
Another assay deals with HLA-A*02:12. The description is as above.
In a further assay the target is HLA-A*68:02. The description is as above.
The target of a further assay is HLA-A*02:19. The assay is described as above.
A further assay concerns the target HLA-A*02:03. Described as above.
The next assay concerns the target HLA-A*11:01. Described as above. The following applies: source organism: Coxiella burnetii.
The next assay concerns the target HLA-A*24:03. The assay is described as above.
The target of a further assay is HLA-A*26:01. Description: IEDB peptide-MHC binding, purified MHC/competitive/fluorescence; filed as Kd, often an IC50 or EC50 that approximates it; ≥ and ≤ were set here for values at or beyond the usual limits of such assays.
Assay [10] addresses HLA-B*39:01. Described as above. The following applies: source organism: Coxiella burnetii.
The next assay has as its target HLA-B*51:01. The assay is described as above.
For another assay, the target named is HLA-B*27:03. The description is as above.
Assay [11] concerns the target HLA-A*69:01. The description is as above.
In assay [12] the target is HLA-A*02:01. The assay is described as above. Conditions: source organism: Coxiella burnetii.
Assay [13] deals with HLA-B*46:01. The description is as above.
In the next assay the target is HLA-B*15:17. Described as above.
Assay [14] has as its target HLA-B*18:01. The description is as above.
The target in assay [15] is HLA-B*57:01. The assay is described as above.
The target of assay [16] is HLA-B*15:01. Described as above. Conditions: source organism: Hantavirus HPR/02-73.
Another assay concerns the target HLA-B*83:01. Described as above. The following applies: source organism: Salmonella enterica subsp. enterica serovar Typhi.
In a further assay the target is HLA-B*15:42. The description is as above. The following applies: source organism: Salmonella enterica subsp. enterica serovar Typhi.
For a further assay, the target named is HLA-B*45:06. The assay is described as above. Conditions: source organism: Salmonella enterica subsp. enterica serovar Typhi.
The mark [17] stands for this setting: source organism: Mammarenavirus juninense.
Where [18] appears, read: source organism: Coxiella burnetii.
Where [19] appears, read: source organism: Araucaria virus.
[20] abbreviates: source organism: Hantavirus HPR/02-73.
The mark [21] stands for this setting: source organism: Mammarenavirus lassaense.
Where [22] appears, read: source organism: Mycobacterium tuberculosis variant bovis BCG str. Pasteur 1173P2.

The sequence HISWQGPGK returned a Kd with HLA-A*03:01 [1] (source organism: Vibrio atlanticus LGP32) of 0.218 µM.

The sequence VIWAASGFY came in with a Kd with HLA-A*03:01 [1] (source organism: Yersinia pestis Nepal516) of 0.0956 µM.

As to GKLDPTNTL, the Kd with HLA-B*27:05 (setting [17]) is no less than 20 µM; with HLA-B*44:02 (setting [17]) it was no less than 20 µM; with HLA-B*39:01 [2] (setting [17]), 3 µM; with HLA-A*29:02 (setting [17]), no less than 20 µM; with HLA-B*15:01 [3], no less than 20 µM; in the assay with HLA-B*58:01, no less than 20 µM. Besides, the Kd with HLA-A*01:01 (setting [17]), with HLA-A*03:01 [4] (setting [17]), with HLA-A*69:01 [5], in the assay with HLA-A*02:01 [6], with HLA-B*46:01 [7] (setting [17]) and with HLA-B*18:01 [8] was no less than 20 µM each time. The Kd in the assay with HLA-A*31:01, with HLA-B*57:01 [9], with HLA-B*07:02 (setting [17]) and in the assay with HLA-B*40:01 (setting [17]) was no less than 20 µM throughout.

Take KFFMVHSLK: the Kd with HLA-A*02:16 is no less than 20 µM; with HLA-A*02:12 (setting [18]) it was no less than 20 µM; with HLA-A*68:02 (setting [18]) it was no less than 20 µM; in the assay with HLA-A*02:19 (setting [18]), no less than 20 µM; with HLA-A*02:03 (setting [18]) it was no less than 20 µM; with HLA-A*11:01 it was 0.603 µM. In addition, the Kd in the assay with HLA-A*24:03 (setting [18]), with HLA-A*26:01 (setting [18]), with HLA-B*39:01 [10], in the assay with HLA-B*51:01 (setting [18]), with HLA-B*27:03 (setting [18]) and with HLA-A*69:01 [11] (setting [18]) was no less than 20 µM each time. The Kd with HLA-A*02:01 [12], with HLA-B*46:01 [13] (setting [18]), in the assay with HLA-B*15:17 (setting [18]), in the assay with HLA-B*18:01 [14] (setting [18]) and with HLA-B*57:01 [15] (setting [18]) was no less than 20 µM each time.

On to MTSGSSSGF, for which the Kd with HLA-A*29:02 (source organism: Mycobacterium tuberculosis H37Rv) was 0.051 µM; in the assay with HLA-A*01:01 (source organism: Mycobacterium tuberculosis), no less than 5 µM.

As for WKAIGAYIL, the Kd is 0.0269 µM in the assay with HLA-B*39:01 [2] (source organism: Juquitiba virus); no less than 20 µM in the assay with HLA-A*29:02 (setting [19]); no less than 20 µM with HLA-A*02:12 (setting [19]); no less than 20 µM with HLA-A*68:02 (setting [19]); no less than 20 µM in the assay with HLA-A*03:01 [4] (setting [19]); no less than 20 µM in the assay with HLA-A*02:19 (setting [19]). Besides, the Kd with HLA-A*02:03 (setting [19]), with HLA-A*24:03 (setting [19]), in the assay with HLA-A*26:01 (setting [20]), with HLA-B*15:01 [16], with HLA-B*51:01 (setting [20]) and with HLA-B*27:03 (setting [20]) was no less than 20 µM throughout. In addition, the dissociation constant (Kd) with HLA-A*69:01 [11] (setting [20]), in the assay with HLA-B*46:01 [13] (setting [20]), with HLA-B*15:17 (setting [20]), with HLA-B*18:01 [14] (setting [20]) and with HLA-B*57:01 [15] (setting [20]) was no less than 20 µM throughout.

RLLHRTTRH registered a Kd with HLA-A*03:01 [1] (source organism: Burkholderia vietnamiensis G4) of 0.012 µM.

As for FTFKVNSVK, the Kd with HLA-B*83:01 was no less than 5 µM; with HLA-A*03:01 [1] (source organism: Salmonella enterica subsp. enterica serovar Typhi), 0.152 µM; with HLA-B*15:42, no less than 5 µM; with HLA-B*45:06, no less than 5 µM.

For the sequence KREEHYIVL, the Kd with HLA-B*27:05 (setting [21]) is no less than 20 µM; in the assay with HLA-B*44:02 (setting [21]) it was no less than 20 µM; with HLA-B*39:01 [2] (setting [21]), 0.1 µM; with HLA-A*03:01 [4] (setting [21]) it was no less than 20 µM; in the assay with HLA-B*46:01 [7] (setting [21]) it was no less than 20 µM; in the assay with HLA-B*07:02 (setting [21]), no less than 20 µM.

Regarding FMLSVHYRK, the Kd with HLA-A*03:01 [1] (source organism: Listeria monocytogenes HCC23) was 0.364 µM.

Consider QETWTRLVL, for which the Kd in the assay with HLA-B*39:01 [2] (setting [22]) turned out to be 0.108 µM; in the assay with HLA-B*40:01 (setting [22]) it was 0.0389 µM.
